# Experimental data reported in the RNAGym collection of RNA variant scans (doi:10.7554/elife.90254).
# B1: LINE1-full (parent)
# chain: UACGUAGGUGGUUUUCCCCUGAUAGUGCUAAGGGGGCCUGGAAGUUUGGACUGGGCAGAGCUCAACACAGCGUGGCAAAGUGGCUGUGGCUAGACUGCCUCUCUGGAUUCCUCGUCACUCAGCAGGGCAUCUCUGAGAGAAAUGCC
# Variants of: B1
# Test: self-cleavage, relative activity (ratio to wild type); higher = more cleavage; in vitro, sequencing; the parent is a self-cleaving ribozyme
row,Variant,self-cleavage
1,U13G U100C,1.17
2,U13C A69G,0.5
3,U13C U109A,1.11
4,U13C U109C,1
5,U13C U45A,0.76
6,U13C U45C,1.16
7,U14C A78U,1.44
8,U14A U112A,1.33
9,U14A U112C,0.79
10,U13A U109A,0.28
11,U13A A50U,0.58
12,U13G C99U,0.69
13,U13C G82A,0.72
14,U12G U104A,1.76
15,U13A A65G,0.08
16,U13A A65U,0.09
17,U13C U143G,2.3
18,U13C U143C,1.06
19,U13C C131U,1.79
20,U13A U39C,0.61
21,U13C G114A,1.16
22,U13C G114U,1.65
23,U13C A92U,0.68
24,U13C A92G,0

row,Variant,self-cleavage
1,U14A C111A,0.72
2,U13C A67U,0.16
3,U13G A69G,0.67
4,U13C G33A,0.81
5,U13C A142G,1.3
6,U14C A77U,1.19
7,U13G U46C,1.33
8,U14A A94U,0.13
9,U13A G55A,0.21
10,U13C A79G,1.25
11,U13C A79U,1.53
12,U14A A124G,0.62
13,U14A A124U,1.67
14,U14A U26C,1.95
15,U13C C99G,0.39
16,U14A A69U,0.06
17,U14A A69G,2.24
18,U13A U143C,1.51
19,U13C G25A,1.31
20,U13C U26C,1.01
21,U13C U26A,0.97
22,U13C G139A,0.92
23,U14A A67G,0.59
24,U13G G105A,0.74

row,Variant,self-cleavage
1,U13C G58C,0.08
2,U12G U100C,1.33
3,U13A U87C,0.16
4,U13A U87A,0.07
5,U14C A124G,1.09
6,U14C A124U,1.25
7,U13C C123A,1.42
8,U13A A121G,0.88
9,U13G A142G,1.41
10,U13C U39G,1.54
11,U13C U39A,1.33
12,U13C U100G,1.63
13,U13C U46C,1.17
14,U13C G44A,0.75
15,U14A A65G,0.06
16,U13A A124G,0.97
17,U13A A124U,0.98
18,U13C U104A,1.18
19,U13C U104C,1.28
20,U13C U134C,1.21
21,U13C G48U,0.91
22,U14A A57C,0.04
23,U14A A57G,0.75
24,U14A A57U,0.03

row,Variant,self-cleavage
1,U13G U119A,1.8
2,U14A U52A,1.09
3,U13A U52C,1.78
4,U13A U112A,0.45
5,U13A U112C,0.9
6,U14C A24G,0.81
7,U14C A24U,1.07
8,U13A A94G,0.19
9,U14A C90U,0.04
10,U13A U130A,1.15
11,U13C G35U,0.75
12,U13C G35C,1.24
13,U13C G41U,1.14
14,U14C A69U,0.07
15,U14C A69C,0.08
16,U13G U115C,1.39
17,U13C C111A,1.57
18,U14C A107U,1.2
19,U14C A107G,1.22
20,U13A A140U,0.89
21,U13C U87C,0.24
22,U13C U87A,0.1
23,U13G A138G,1.45
24,U13C U108C,1.37

row,Variant,self-cleavage
1,U13C U108A,0.91
2,U13G U73A,2.54
3,U13C A129G,1.52
4,U13C A129U,1.13
5,U14A U143A,0.99
6,U13C U47G,0.81
7,U13C U47A,1.02
8,U13C U23A,1.09
9,U13C A107U,1.14
10,U12G U45A,1.3
11,U14C A43U,1.15
12,U14C A43G,1.14
13,U14C A59G,0.14
14,U14C A50G,1.08
15,U13C U96A,0.11
16,U13C U96C,0.17
17,U13A A43G,0.96
18,U12G U39A,1.05
19,U14C A30G,1.08
20,U14C A30U,1.11
21,U13C A42G,1.19
22,U13C A42U,0.88
23,U14A A136U,1.19
24,U13C G93U,0.03

row,Variant,self-cleavage
1,U13C G93A,0.17
2,U13C C146U,1.64
3,U13C A24G,1.16
4,U13A G126A,1.08
5,U13G A141G,0.94
6,U12G U119G,0.8
7,U13C U112A,1.05
8,U13C G36C,0.96
9,U13A U104A,0.94
10,U13A U104C,1.51
11,U13A C71A,0.12
12,U12G U130G,0.77
13,U12G U130C,1.43
14,U14A A121G,0.94
15,U14A A121C,1.07
16,U13C U15A,0.79
17,U13C U15G,0.75
18,U13G A117C,0.65
19,U13A U96A,0.05
20,U14A U96G,0
21,U13A G60C,0
22,U14A U23A,0.72
23,U13G U47A,0.86
24,U13A A141G,1.26

row,Variant,self-cleavage
1,U13C A65U,0.2
2,U13C A65C,0.15
3,U13C C37U,1.33
4,U13C C37G,1.03
5,U14C A65G,0.12
6,U12G U143A,0.59
7,U12G U85A,0.22
8,U12G U85G,0.21
9,U13C A50G,0.63
10,U13C C61U,0
11,U13A U102G,0.41
12,U13A U102C,0.84
13,U13C C38U,1.15
14,U14A G137A,0.77
15,U13A G34A,1.13
16,U14A G36U,1.12
17,U13G U96C,0.14
18,U12G U14A,0.44
19,U13G U23C,0.76
20,U14A A79G,0.8
21,U13C G83U,0.27
22,U14C A94U,0.29
23,U12G U102C,0.59
